Measured values as given in patent publication US20190276561A1 (FUJIFILM WAKO PURE CHEMICAL, published 2019).
Values belong to the binder of their own block, whether it stands above or below them.

Tests used:
C8 peptide (PRGYPGQV) = target: T1, C8 peptide (PRGYPGQV); assay: affinity chromatography on immobilised C8 peptide, eluted with free C8
T1 construct: Antigen molecule of the P20.1 antibody
T1 peptide: PRGYPGQV

[1] = target: T2, SORLA (neuroral sorting receptor) Vps10p domain (Homo sapiens (Human), UniProt Q92673 86-753); assay: peak shift in gel filtration chromatography
T2 construct: also called SORLA Vps10p domain
T2 sequence: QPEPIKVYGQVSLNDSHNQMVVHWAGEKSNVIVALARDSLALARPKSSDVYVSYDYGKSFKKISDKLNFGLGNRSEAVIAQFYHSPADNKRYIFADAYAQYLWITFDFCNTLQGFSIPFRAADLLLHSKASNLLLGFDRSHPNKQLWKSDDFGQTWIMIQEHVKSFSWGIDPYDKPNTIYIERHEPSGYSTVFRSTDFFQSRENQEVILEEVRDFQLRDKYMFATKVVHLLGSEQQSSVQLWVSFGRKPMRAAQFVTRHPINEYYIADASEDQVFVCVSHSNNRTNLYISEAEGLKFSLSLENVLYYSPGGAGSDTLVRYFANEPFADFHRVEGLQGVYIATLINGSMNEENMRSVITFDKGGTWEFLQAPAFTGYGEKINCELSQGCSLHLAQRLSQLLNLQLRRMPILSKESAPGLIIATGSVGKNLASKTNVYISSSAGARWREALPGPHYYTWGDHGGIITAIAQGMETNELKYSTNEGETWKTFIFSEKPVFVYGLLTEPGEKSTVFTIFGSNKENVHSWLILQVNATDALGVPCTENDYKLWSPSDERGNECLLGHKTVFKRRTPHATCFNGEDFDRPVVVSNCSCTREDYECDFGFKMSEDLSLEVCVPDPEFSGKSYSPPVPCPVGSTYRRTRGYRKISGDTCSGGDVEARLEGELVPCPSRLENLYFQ

Integrin α6β1 = target: T3, Integrin α6β1 (Homo sapiens (Human), UniProt P23229 24-680; P05556 21-465); assay: peak shift in gel filtration chromatography
T3 construct: Antigen of the TS2/16 and SG/19 antibodies

[2] = target: T4, hepatocyte growth factor (HGF) (Homo sapiens (Human), UniProt P14210 388-728); assay: X-ray crystal structure of the complex
T4 construct: Antigen of the t8E4 and t1E4 antibodies

[3] = target: T4, hepatocyte growth factor (HGF); assay: peak shift in gel filtration chromatography

T4 sequence (P14210 other isoform, or with tags, fused parts or gaps limits assumed): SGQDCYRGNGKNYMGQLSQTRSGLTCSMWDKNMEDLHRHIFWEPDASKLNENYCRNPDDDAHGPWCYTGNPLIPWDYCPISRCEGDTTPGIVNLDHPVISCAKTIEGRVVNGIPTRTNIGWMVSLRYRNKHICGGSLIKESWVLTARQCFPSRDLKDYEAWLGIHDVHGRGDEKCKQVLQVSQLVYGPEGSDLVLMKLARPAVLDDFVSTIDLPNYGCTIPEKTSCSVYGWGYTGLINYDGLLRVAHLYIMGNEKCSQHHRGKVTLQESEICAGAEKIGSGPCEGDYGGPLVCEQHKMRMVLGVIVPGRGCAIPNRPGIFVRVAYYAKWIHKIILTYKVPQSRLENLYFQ
T3 sequence (P23229 other isoform, or with tags, fused parts or gaps limits assumed, chain 1 of 2): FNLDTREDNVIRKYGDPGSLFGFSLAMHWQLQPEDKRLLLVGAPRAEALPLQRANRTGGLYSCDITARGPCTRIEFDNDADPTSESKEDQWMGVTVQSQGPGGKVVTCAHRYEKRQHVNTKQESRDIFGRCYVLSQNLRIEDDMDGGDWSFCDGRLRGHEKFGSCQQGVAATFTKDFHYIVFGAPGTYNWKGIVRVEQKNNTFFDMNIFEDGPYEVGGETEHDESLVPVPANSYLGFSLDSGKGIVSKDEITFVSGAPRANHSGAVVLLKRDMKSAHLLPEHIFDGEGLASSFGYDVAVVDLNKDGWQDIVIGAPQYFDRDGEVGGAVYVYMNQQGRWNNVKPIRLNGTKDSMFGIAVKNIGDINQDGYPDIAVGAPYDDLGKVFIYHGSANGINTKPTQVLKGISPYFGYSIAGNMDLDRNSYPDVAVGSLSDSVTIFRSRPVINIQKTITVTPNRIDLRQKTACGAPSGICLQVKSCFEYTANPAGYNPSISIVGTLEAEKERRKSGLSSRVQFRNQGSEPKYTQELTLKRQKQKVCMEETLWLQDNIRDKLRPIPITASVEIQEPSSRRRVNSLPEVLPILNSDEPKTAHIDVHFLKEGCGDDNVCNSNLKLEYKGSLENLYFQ
T3 sequence (P05556 other isoform, or with tags, fused parts or gaps limits assumed, chain 2 of 2): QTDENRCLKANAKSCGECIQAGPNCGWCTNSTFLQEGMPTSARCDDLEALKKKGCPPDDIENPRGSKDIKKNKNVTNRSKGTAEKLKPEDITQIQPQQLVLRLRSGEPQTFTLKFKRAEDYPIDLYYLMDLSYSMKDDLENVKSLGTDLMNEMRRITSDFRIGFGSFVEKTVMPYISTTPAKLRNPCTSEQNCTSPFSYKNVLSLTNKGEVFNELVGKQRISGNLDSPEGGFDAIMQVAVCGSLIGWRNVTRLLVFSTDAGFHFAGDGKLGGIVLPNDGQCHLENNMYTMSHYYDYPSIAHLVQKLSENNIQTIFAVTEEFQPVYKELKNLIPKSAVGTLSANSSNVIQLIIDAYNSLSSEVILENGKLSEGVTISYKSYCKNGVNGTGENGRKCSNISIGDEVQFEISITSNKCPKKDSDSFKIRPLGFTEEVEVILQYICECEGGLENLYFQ

B1: P20.1 antibody-Fv-clasp (v1) obtained in the E. coli expression system (Comparative Example 1) (other)
VH: MQIQLVQSGPEVQKPGETVRISCKASGYTFTTAGMQWVQKMPGKSLKWIGWINTRSGVPKYAEDFKGRFAFSLETSASIAYLHINNLKNEDTATYFCAREGPGFVYWGQGTLVTVSSGSDYEFLKSWTVEDLQKRLLALDPMMEQEIEEIRQKCQSKRQPILDAIEAK
VL: MGQTVVTQESALTTSPGETVTLTCRSSTGAVTTSNYANWVQEKPDHLFTGLIVGTNNRVPGVPPRFSGSLIEDKAALTITGAQTEDEAIYFCALWYSNHWVFGGGTKLTVLGGSDYEFLKSWTVEDLQKRLLALDPMCEQEIEEIRQKYQSKRQPILDAIEAK
notes: Fv-clasp fragment antibody: heterodimer of VH-SARAH and VL-SARAH linked by a disulfide between Cys35 and Cys24 of the two SARAH domains; also called Fv-clasp (v1) against P20.1 antibody; Fv-clasp (v1) of P20.1 antibody
binding result (C8 peptide (PRGYPGQV)): binds

B2: 93201 antibody-Fv-clasp (v2) (other)
VH: MEVQLQQSGAELVKPGASVKLSCTASGFNIQDTYIHWVKQRPEQGLDWIGRIDPANGNTKYDPNFQGKATITADTSSNTAYLQLSSLASEDTAVYYCATSNYYSRGAMDYWGQGTSVTVCSGSDYEFLKSWTVEDLQKRLLALDPMMEQEIEEIRQKYQSKRQPILDAIEAK
VL: MDIVLTQSPASLAVSLGQRATISCRASESVEYYGTNLMHWYQQKPGQPPKLLIYVASTVKSGVPARFSGSGSGTDFSLNIHPVEEDDIAMYFCQQSRKVPWTFGGGTRLEIKRGSDYEFLKSWTVEDLQKRLLALDPMMEQEIEEIRQKYQCKRQPILDAIEAK
binding result [1]: binds

B4: t1E4 antibody-Fv-clasp (v2) (other)
VH: MKQGQLQQSGPELVKPGASVKISCKASGYVFSSSWMNWVKQRPGKGLEWIGRIYPGYGDTNYNGKFKGKATLTADKSSSTAYMQLSSLTSEDSAVYFCVREELGPYWYFDVWGAGTTVTVCSGSDYEFLKSWTVEDLQKRLLALDPMMEQEIEEIRQKYQSKRQPILDAIEAK
VL: MDVVMTQTPLSLPVSLGDQASISCRSSQSLVHSNGNTYLHWYLQKPGQSPKLLIYKVSNRFSGVPDRFSGSGSGTDFTLKISRVEAEDLGVYFCSQSTHVPYTFGSGTKLEIKRGSDYEFLKSWTVEDLQKRLLALDPMMEQEIEEIRQKYQCKRQPILDAIEAK
notes: also called Fv-clasp (v2) against t1E4 antibody
binding result [2]: binds

The next lines start with the values.

binding result (Integrin α6β1): binds
B3: SG/19 antibody-Fv-clasp (v2) (other)
VH: MQVHLQQSGAELMKPGASVKISCKATGYTFTSYWIEWVKQRPGHGLEWLGEILPGSGYIHYNEKFKGKATFTTDTSSNTAYMQLSSLTSEDSAVYYCSRALALYAMDYWGQGTSVTVCSGSDYEFLKSWTVEDLQKRLLALDPMMEQEIEEIRQKYQSKRQPILDAIEAK
VL: MDIVMTQATPSIPVTPGESVSISCRSNKSLLHSNGNTYLYWFLQRPGQSPRLLIFRMSNLASGVPDRFSGSGSGTAFTLRISRVEAADVGIYFCLQHLEYPFTFGAGTKLELKRGSDYEFLKSWTVEDLQKRLLALDPMMEQEIEEIRQKYQCKRQPILDAIEAK
notes: also called Fv-clasp (v2) against SG/19 antibody

binding result [3]: binds
B5: t8E4 antibody-Fv-clasp (v2) (other)
VH: MKQVQLKESGPDLVQPSQTLSLTCTVSGFSLTGYGVHWVRQPPGKGLEWVGTLGWNDKKYYNSALKSRLSISRDTSKNQVFLKLSSLETEDTAMYYCTRDGGLLFAYYAMDYWGQGTSVTVCSGSDYEFLKSWTVEDLQKRLLALDPMMEQEIEEIRQKYQSKRQPILDAIEAK
VL: MDIQMTQTTSSLSASLGDRVTFSCRASQDISNYLNWYQQKPDGTVKLLIFYTSRLHSGVPSRFSGSGSGTDYSLTIANLEQEDFATYFCQQDSKHPFTFGSGTKLEIKRGSDYEFLKSWTVEDLQKRLLALDPMMEQEIEEIRQKYQCKRQPILDAIEAK
notes: also called Fv-clasp (v2) against t8E4 antibody

binding result (Integrin α6β1): binds
B6: TS2/16 antibody-Fv-clasp (v2) (other)
VH: MDVKLVESGGGLVKPGGSLKLSCAASGFTFSSYTMSWVRQTPEKRLEWVATISSGGSYTYYPDSVKGRFTISRDKAKNTLYLQMGSLKSEDTAMYYCTRIGYDEDYAMDHWGQGTSVTVCSGSDYEFLKSWTVEDLQKRLLALDPMMEQEIEEIRQKYQSKRQPILDAIEAK
VL: MQIVVTQRPTTMAASPGDKIIITCSVSSIISSNYLHWYSQKPGFSPKLLIYRTSNLASGVPPRFSGSGSGTSYSLTIGTMEAEDVATYYCQQGSDIPLTFGDGTKLDLKRGSDYEFLKSWTVEDLQKRLLALDPMMEQEIEEIRQKYQCKRQPILDAIEAK
notes: also called Fv-clasp (v2) against TS2/16 antibody
